Assay [1] concerns the target T1, human soluble urokinase plasminogen activator receptor (suPAR) (human, UniProt Q03405 23-303, limits assumed).
T1 construct: Target antigen of the scFv off-rate screen; also called hsuPAR; human suPAR
As to the kind of experiment: BLI (Octet) off-rate screen of scFv clones. For orientation: In BLI a coated tip is dipped into the sample, and binding shifts an interference pattern.

Assay [2] deals with T2, cynomolgus soluble urokinase plasminogen activator receptor (suPAR) (cynomolgus, UniProt Q9GK78 23-303, limits assumed).
T2 construct: Target antigen of the scFv off-rate screen; also called cynomolgus suPAR; cynomolgus uPAR
T2 sequence (Q9GK78 23-303 limits assumed): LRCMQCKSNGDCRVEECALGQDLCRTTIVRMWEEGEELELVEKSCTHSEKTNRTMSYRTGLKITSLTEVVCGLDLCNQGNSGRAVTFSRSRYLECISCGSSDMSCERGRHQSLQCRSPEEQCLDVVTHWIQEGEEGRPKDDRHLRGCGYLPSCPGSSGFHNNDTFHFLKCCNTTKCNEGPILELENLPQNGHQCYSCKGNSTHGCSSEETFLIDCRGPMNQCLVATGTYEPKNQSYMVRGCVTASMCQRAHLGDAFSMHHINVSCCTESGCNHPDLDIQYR
Kind of assay: BLI (Octet) off-rate screen of scFv clones.

T1 sequence (Q03405 23-303 limits assumed): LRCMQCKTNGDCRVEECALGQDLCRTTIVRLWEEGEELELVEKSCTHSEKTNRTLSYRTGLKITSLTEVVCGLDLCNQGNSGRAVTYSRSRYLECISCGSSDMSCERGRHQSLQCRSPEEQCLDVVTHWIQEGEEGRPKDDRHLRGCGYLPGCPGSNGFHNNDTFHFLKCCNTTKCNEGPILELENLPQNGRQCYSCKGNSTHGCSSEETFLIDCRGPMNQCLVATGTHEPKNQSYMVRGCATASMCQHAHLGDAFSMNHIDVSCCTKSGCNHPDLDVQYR

B1: suPAR_DB06_D11 (scFv, V domains shown)
VH: QVQLVQSGAEVKKPGASVKVSCKASGYTFANYYVHWVRQAPGQGLEWVGMIDPGGGTTNYAQKFQGRVTMTRDTSTSTVYMELSSLRSEDTAVYYCARGYDVDWFVYWGQGTLVTVSS
VL: DIQMTQSPSSLSASVGDRVTITCRARQSVSYMYWYQQKPGKAPKLLIYRTSNLASGVPSRFSGSGSGTDFTLTISSLQPEDFATYYCQQYHSYPPTFGGGTKVEIK
Regarding B1, the koff (as a rule, the rate constant with which the complex falls apart) is 0.0021 s⁻¹ in assay [1] and 0.000439 s⁻¹ in assay [2].

B2: suPAR_DB06_E09 (scFv, V domains shown)
VH: QVQLVQSGAEVKKPGASVKVSCKASGHTFTNYYVHWVRQAPGQGLEWMGWIDHENGSTSYDQKFQGRVTMTRDTSTSTVYMELSSLRSEDTAVYYCARGYDVDWFVYWGQGTLVTVSS
VL: DIQMTQSPSSLSASVGDRVTITCSARSSVSYMYWYQQKPGKAPKLLIYRTSNLASGVPSRFSGSGSGTDFTLTISSLQPEDFATYYCQQYHSYPPTFGGGTKVEIK
Take B2: the figures for the off-rate (koff) in assay [1] and in assay [2] were 0.00316 s⁻¹ and 0.000301 s⁻¹, respectively.

B3: suPAR_DB06_E12 (scFv, V domains shown)
VH: QVQLVQSGAEVKKPGASVKVSCKASGYTFTSYYMHWVRQAPGQGLEWMGWIDHENGNTSYAQKFQGRVTMTRDTSTSTVYMELSSLRSEDTAVYYCARGYDVDWFVYWGQGTLVTVSS
VL: DIQMTQSPSSLSASVGDRVTITCRARSSVSYMYWYQQKPGKAPKLLIYRTSNLASGVPSRFSGSGSGTDFTLTISSLQPEDFATYYCQQYHSYPPTFGGGTKVEIK
As for B3, the values for the koff in assay [1] and in assay [2] were 0.00373 s⁻¹ and 0.000164 s⁻¹, respectively.

B4: suPAR_DB06_E07 (scFv, V domains shown)
VH: QVQLVQSGAEVKKPGASVKVSCKASGYTFTNYYLHWVRQAPGQGLEWMGWIDPHSGGTNYAQKFQGRVTMTRDTSTSTVYMELSSLRSEDTAVYYCASGYDVDWFVYWGQGTLVTVSS
VL: DIQMTQSPSSLSASVGDRVTITCSARSSVSYMYWYQQKPGKAPKLLIYRTSNLASGVPSRFSGSGSGTDFTLTISSLQPEDFATYYCQQYHSYPPTFGGGTKVEIK
On to B4, for which the koff in assay [1] worked out at 0.00497 s⁻¹; in assay [2] it was 0.000388 s⁻¹.

B5: suPAR_DB06_E05 (scFv, V domains shown)
VH: QVQLVQSGAEVKKPGASVKVSCKASGYTFTSHYIQWVRQAPGQGLEWMGWIDHENGNTIYDQKFQGRVTMTRDTSTSTVYMELSSLRSEDTAVYYCARGTDVDWFVYWGQGTLVTVSS
VL: DIQMTQSPSSLSASVGDRVTITCSARSSVSYMYWYQQKPGKAPKLLIYRTSNLASGVPSRFSGSGSGTDFTLTISSLQPEDFATYYCQQYHSYPPTFGGGTKVEIK
In the case of B5, the koff in assay [1] came out at 0.00315 s⁻¹; in assay [2] it was 0.000905 s⁻¹.

B6: suPAR_DB06_E08 (scFv, V domains shown)
VH: QVQLVQSGAEVKKPGASVKVSCKASGYGFTDYYMHWVRQAPGQGLEWMGWIDHSGGNTIYAQKFQGRVTMTRDTSTSTVYMELSSLRSEDTAVYYCARGYDVDWFVYWGQGTLVTVSS
VL: DIQMTQSPSSLSASVGDRVTITCSARQSVSYMYWYQQKPGKAPKLLIYRTSNLASGVPSRFSGSGSGTDFTLTISSLQPEDFATYYCQQYHSYPPTFGGGTKVEIK
As for B6, the off-rate constant (koff) in assay [1] stood at 0.00335 s⁻¹; in assay [2] it was 2.02e-05 s⁻¹.

B7: suPAR_DB06_E04 (scFv, V domains shown)
VH: QVQLVQSGAEVKKPGASVKVSCKASGDTFSSYYMHWVRQAPGQGLEWMGWIDHENGNTIYDQKFQGRVTMTRDTSTSTVYMELSSLRSEDTAVYYCARGYDMDWFVYWGQGTLVTVSS
VL: DIQMTQSPSSLSASVGDRVTITCRARSSVSYMYWYQQKPGKAPKLLIYRTSNLQSGVPSRFSGSGSGTDFTLTISSLQPEDFATYYCQQYHSYPPTFGGGTKVEIK
With B7, the off-rate constant (koff) was determined as 0.00541 s⁻¹ in assay [1] and 0.000388 s⁻¹ in assay [2].

B8: suPAR_DB06_F01 (scFv, V domains shown)
VH: QVQLVQSGAEVKKPGASVKVSCKASGGTFTSYYVHWVRQAPGQGLEWMGWIDPEGGNTSYDQKFQGRVTMTRDTSTSTVYMELSSLRSEDTAVYYCARGYDVDWFVYWGQGTLVTVSS
VL: DIQMTQSPSSLSASVGDRVTITCSARSSVSYMYWYQQKPGKAPKLLIYRTSNLASGVPSRFSGSGSGTDFTLTISSLQPEDFATYYCQQYHSYPPTFGGGTKVEIK
Consider B8, for which the values for the koff in assay [1] and in assay [2] were 0.00305 s⁻¹ and 0.000197 s⁻¹, respectively.

B9: suPAR_DB06_E03 (scFv, V domains shown)
VH: QVQLVQSGAEVKKPGASVKVSCKASGFNIKDYYIHWVRQAPGQGLEWMGWIDPENGNTSYDQKFQGRVTMTRDTSTSTVYMELSSLRSEDTAVYYCARGYDVDWFVYWGQGTLVTVSS
VL: DIQMTQSPSSLSASVGDRVTITCSARSSVSYMYWYQQKPGKAPKLLIYRTSNLASGVPSRFSGSGSGTDFTLTISSLQPEDFATYYCQQYHSYPPTFGGGTKVEIK
In the case of B9, the dissociation rate constant (koff) was found to be 0.00201 s⁻¹ in assay [1] and 0.00037 s⁻¹ in assay [2].

B10: suPAR_DB06_D12 (scFv, V domains shown)
VH: QVQLVQSGAEVKKPGASVKVSCKASGGTFSSYYMHWVRQAPGQGLEWMGWIDPENGNTIYAQKFQGRVTMTRDTSTSTVYMELSSLRSEDTAVYYCARGYDVDWFVYWGQGTLVTVSS
VL: DIQMTQSPSSLSASVGDRVTITCSARQSVSYMYWYQQKPGKAPKLLIYRTSSLASGVPSRFSGSGSGTDFTLTISSLQPEDFATYYCQQYHSYPPTFGGGTKVEIK
For the molecule B10, the koff in assay [1] is 0.00515 s⁻¹; in assay [2], 0.000189 s⁻¹.

B11: suPAR_DB06_E11 (scFv, V domains shown)
VH: QVQLVQSGAEVKKPGASVKVSCKASGYTFTGYYMHWVRQAPGQGLEWMGWIDHENGNTIYAQKFQGRVTMTRDTSTSTVYMELSSLRSEDTAVYYCARGYDVDWFVYWGQGTLVTVSS
VL: DIQMTQSPSSLSASVGDRVTITCSASSSVSYMYWYQQKPGKAPKLLIYRTSNLASGVPSRFSGSGSGTDFTLTISSLQPEDFATYYCQQYHSYPPTFGGGTKVEIK
Regarding B11, the figures for the koff in assay [1] and in assay [2] were 0.00118 s⁻¹ and 0.000723 s⁻¹, respectively.

B12: suPAR_DB06_E06 (scFv, V domains shown)
VH: QVQLVQSGAEVKKPGASVKVSCKASGDTSTSYYMHWVRQAPGQGLEWMGWIDHENGSTIYDQKFQGRVTMTRDTSTSTVYMELSSLRSEDTAVYYCARGYDVDWFVYWGQGTLVTVSS
VL: DIQMTQSPSSLSASVGDRVTITCSARSSVSYMYWYQQKPGKAPKLLIYRTSNLASGVPSRFSGSGSGTDFTLTISSLQPEDFATYYCQQYHSYPPTFGGGTKVEIK
Consider B12, for which the off-rate (koff) in assay [1] turned out to be 0.00135 s⁻¹; in assay [2], 0.000319 s⁻¹.

B13: suPAR_DB06_E10 (scFv, V domains shown)
VH: QVQLVQSGAEVKKPGASVKVSCKASGDTFISYYMHWVRQAPGQGLEWMGWIDPENGNTIYDQKFQGRVTMTRDTSTSTVYMELSSLRSEDTAVYYCARGYDVDWFVYWGQGTLVTVSS
VL: DIQMTQSPSSLSASVGDRVTITCSARSSVSYMYWYQQKPGKAPKLLIYRTSNLASGVPSRFSGSGSGTDFTLTISSLQPEDFATYYCQQYHSYPPTFGGGTKVEIK
Regarding B13, the koff in assay [1] turned out to be 0.00526 s⁻¹; in assay [2], 0.000271 s⁻¹.

B14: suPAR_DB06_E02 (scFv, V domains shown)
VH: QVQLVQSGAEVKKPGASVKVSCKASGYSFTNYYMHWVRQAPGQGLEWMGWIDHENGNTIYDQKFQGRVTMTRDTSTSTVYMELSSLRSEDTAVYYCARGYDVDWFVYWGQGTLVTVSS
VL: DIQMTQSPSSLSASVGDRVTITCSARSSVSYMYWYQQKPGKAPKLLIYRTSNLASGVPSRFSGSGSGTDFTLTISSLQPEDFATYYCQQYHSYPPTFGGGTKVEIK
On to B14, for which the koff in assay [1] worked out at 0.00189 s⁻¹; in assay [2], 0.000589 s⁻¹.
